{"source": "the DeepSol protein solubility set", "data": [{"test": "soluble on expression in E. coli; label from the status in PepcDB or PDB records", "values": [{"sequence": "AGENLYFQSLMNNFGNEEFDCHFLDEGFTAKDILDQKINEVSSSDDKDAFYVADLGDILKKHLRWLKALPRVTPFYAVKCNDSKAIVKTLAATGTGFDCASKTEIQLVQSLGVPPERIIYANPCKQVSQIKYAANNGVQMMTFDSEVELMKVARAHPKAKLVLRIATDDSKAVCRLSVKFGATLRTSRLLLERAKELNIDVVGVSFHVGSGCTDPETFVQAISDARCVFDMGAEVGFSMYLLDIGGGFPGSEDVKLKFEEITGVINPALDKYFPSDSGVRIIAEPGRYYVASAFTLAVNIIAKKIVLKEQTGSDDEDESSEQTFMYYVNDGVYGSFNCILYDHAHVKPLLQKRPKPDEKYYSSSIWGPTCDGLDRIVERCDLPEMHVGDWMLFENMGAYTVAAASTFNGFQRPTIYYVMSGPAWQLMQQFQNPDFPPEVEEQDASTLPVSCAWESGMKRHRAACASASINV", "soluble on expression in E. coli": "soluble"}, {"sequence": "MGSDKIHHHHHHAESDSFEDNSSNFESMISLYGIQSATVDSKVGDVPSVTAEEMASVLEALRQNGNTIRNCESETLEGYYEGGDRKEVKMIAEYQARTRSGAFVEQFALCVSVNFNIDNNGGVFYIGTTYSSSTDLFNWQGYGASLSTTAEGNSVFSSTSYLYFRVSDQGNCLVKVPVSFKGSYNFKDNKGTYSFTLSKAAN", "soluble on expression in E. coli": "not soluble"}, {"sequence": "NVVETKALFVSTNDLARRLQKLNNEQKIQSNRLKTTIENIPSAILMIDRNGKIVVANKAYYEQFNISHNIEQVGYHGYVNTEIEQLILESFKVEKPIYEQLEVAINQVHAKYFDISCVPILTRSQKSLQGILVVMHD", "soluble on expression in E. coli": "not soluble"}, {"sequence": "MSHAVTIEEPQAQPQVSQTRYRERSRAGSHISSNRAYDFLYDPLFIVSSEKDHTQANIQATLIRSRLRKVPRFKTMFSNLIHYPRYSLYWSKSDPVPPFISREWKGHKEKHREALRQLTTTDASFQMPKEVYEDPEVTGKNRYKYFERPFLPFFQQMPFNVVYAVSKAEPYTFPPTSTKHLSIPSKSTVGTQTDYRDADVQTDPYSPEYVVCQDSIPELLTLATLTWGRGLPAGQAEVEMIERAREKRAWEASLPALSDTSQFEKRRKMMNEMERKEWAFREQEIEKLQEIRLEVLKELLRKREENQNEVNMKHLNARWSKLQEGKEAKMAVIYLQKLLRGRVIQNMMFEGKEKRLELIQELRTCHALQEDEKLVKKAEKQVTLALQRQRNLHEHKVSLVENHLAGLEGRALADMFDFLSKELVRLQEERRIHAFVMLAERQRRVREAEESGRRQVEKQRLREEDEIFKEVVKVHHSTISSYLEDIILNTEANTAEEQARAEIEKMAEKINDIAYEMESRRTYLQSEEIVAELVYSFLIPEVQKYFVKEKVRNAQRKHILAAHQIIHSYTESMVQKKLTEGEQDEASNAAMLLEKETQNENNS", "soluble on expression in E. coli": "not soluble"}, {"sequence": "MSEVKKTKVHLISGFLGTGKTTALKSLMAQKDPNEKWVIIVNEFGEIGIDGAVLSDNGIPVAEIAGGCLCCTAGPQMGVTVQKMLRDAKPDRLMIEASGLAHAASVIDELKAKPLDSLLEIGAVFTVVDPRQFINPDYAQQALYKDQIGICDVLAASKTDLCTPEQLAEFHDKAAKLFPPKAKVVEVQNAQLDIQWLDIPVVEKSRYRLKALPDNTMGFQSQGFTFPAGRDFNGEKLTNFFNDLPKMTEGLVRAKGVFQVLGTWVWLNWVDGQWGANQVSWRRDSRFELIAKSFDADLIEQKLKDALELEHHHHHH", "soluble on expression in E. coli": "soluble"}, {"sequence": "MGGSHHHHHHGMASALSWKEARCQPAFLKDQARAIRLPPVDACRTQVRHGTGWGREPGILTGWGRRARDPDLGALPPGIQAAFCPGLPRCIEIELVHTAP", "soluble on expression in E. coli": "not soluble"}, {"sequence": "MSLENKETTTTTTTTNNGSDKKKRSLKIDLHTHILPKNWPNLKEKYGYGGWVSLDHHCSCKAKMMIDGKFFREIDSNCWDPDVRIQELNRDDVDIQVLSTVPVMFGYWAKPQDALDLAQYLNDHIAQVVSENPKRFIGLGSLPMQCTESSIQELRRCILELGLPGIQIGSNVNGKNLDDPSLFPIFEECEKLGAAVFIHPWEMVGKDRMPQYWLPWLVGMPAETCLAICSMIFGGVFQRLPNLKVCFAHGGGSFPFTIGRIEHGFNARPDLCAVVNPINPREYIGKFWVDSLVHDEEALKFLVNLMGEKKVTLGTDYPFPLGELVPGQLIESIKEFSETTKENLLGGNALEFLGLDPNKYLEGHHHHHH", "soluble on expression in E. coli": "soluble"}, {"sequence": "MKNQLIDRLTRYTTIDTQSDPKSTTTPSTEKQWDLLHLLEKELQQLGLPTDLDENGYLFATLESNIDVDVPTVGFLAHVDTSPDFNASNVKPQIIENYDGKPYKLGNTKRVLDPKVFPELNSLVGHTLMVTDGTSLLGADDKAGIVEIMEAICYLQEHPEIKHGTIRIGFTPDEEIGRGPHKFDVDRFNADFAYTMDGSQYGELQYESFNAAEAVITCHGVNVHPGSAKNAMVNAIRLGEQFDSLLPDSEVPERTEGYEGFYHLMNFEGTVEKATLQYIIRDHDKKQFELRKKRILEIRDDINAHFENYPVKVDISDQYFNMAEKILPLPHIIDIPKRVFAKLDIPANTEPIRGGTDGSQLSFMGLPTPNIFTGCGNFHGPYEYASIDVMEKAVQVIIGIVEDIAENH", "soluble on expression in E. coli": "not soluble"}, {"sequence": "MSLTRAQLEDMPQYQQVYSSINTWPSKKWYVGKGVHLSELLSLVGIKDDARLLKFTSQDGYTMTLTVKELLVDKRYYFPHFNDNKIGDGEGNIAGSSQGAELVEPIIALISVEGSNNPNYMNDLNTLVLMMGQRAVTEQTGNAFVKYLNKIEVLTSEVPKWDSPQANPGSGEVSAGTMIALSTARMDDDKIYYTTDGSTPNLNSPIYNWIAKRWWSARADILGTYNHPIGPINENTTIKAITIGPGKENSDVATFTYTVPVSKPASETSIVAPNEATNYPDQALEKPLQSEPKATLTDVQNHWAQKNINELIASGIAGGYPDSSFRPDNTITRAEFATMLVKAFNLQNQGGKVFADSEQHWAKEYISRATASGVVSGYDAENFGPDKLITREQMAVMISKAAKLVLKAEAMHFADSAGISEWAKEAVLAANQSGIVKGYPDNTIRPQGSATRAEAVTVIVNALTLKEGHHHHHH", "soluble on expression in E. coli": "not soluble"}, {"sequence": "MTIAILSTGDEIIHGDTLNTNAHYIAHALCSEGLPLGLQVACSDKENEIIDSLNFLTQHHDILILIGGLGPTKDDITRFALAKFTKEPLLQHADALDHIEKKANIAKISLNQGNLQQCLFPANARLFPNPYGTAMGCSYSWKGKVFILLPGPPRECLPMFNQDVLPLLLQTSRHSNK", "soluble on expression in E. coli": "not soluble"}, {"sequence": "SLSAALRTLKHVLYYSRQCLMVSRNLGSVGYDPNEKTFDKILVANRGEIACRVIRTCKKMGIKTVAIHSDVDASSVHVKMADEAVCVGPAPTSKSYLNMDAIMEAIKKTRAQAVHPGYGFLSENKEFARCLAAEDVVFIGPDTHAIQAMGDKIESKLLAKKAEVNTIPGFDGVVKDAEEAVRIAREIGYPVMIKASAGGGGKGMRIAWDDEETRDGFRLSSQEAASSFGDDRLLIEKFIDNPRHIEIQVLGDKHGNALWLNERECSIQRRNQKVVEEAPSIFLDAETRRAMGEQAVALARAVKYSSAGTVEFLVDSKKNFYFLEMNTRLQVEHPVTECITGLDLVQEMIRVAKGYPLRHKQADIRINGWAVECRVYAEDPYKSFGLPSIGRLSQYQEPLHLPGVRVDSGIQPGSDISIYYDPMISKLITYGSDRTEALKRMADALDNYVIRGVTHNIALLREVIINSRFVKGDISTKFLSDVYPDGFKGHMLTKSEKNQLLAIASSLFVAFQLRAQHFQENSRMPVIKPDIANWELSVKLHDKVHTVVASNNGSVFSVEVDGSKLNVTSTWNLASPLLSVSVDGTQRTVQCLSREAGGNMSIQFLGTVYKVNILTRLAAELNKFMLEKVTEDTSSVLRSPMPGVVVAVSVKPGDAVAEGQEICVIEAMKMQNSMTAGKTGTVKSVHCQAGDTVGEGDLLVELE", "soluble on expression in E. coli": "soluble"}, {"sequence": "MSLTIPDSTPSDFSHEFFGSLDPQALAHPDSIKWQHYGEGVIPMWIADMDFPVAPPILRALEDRLTRGLGYPLGRDDRLIADLQTKWASQGLTDVPADGIHFTPSVVPGLYAGVHGLTEPGDRVVTMTPIYHPFHLAINDLGREVAAAPLREGDTRWEIDWDALERAAEGARLLMLCHPHNPCGRVWDADELARLRELVLAHDLYVISDELHADLRFTDAPFEAFAADPRVRDRTLTVTGPCKAFNTAGLGIGVMVTHDPELLARVQRRVAGLGGHPSALSFTMWRVALEDGGPWLARTVEYLRGNRDFMTAFLRERLPWVRFTVPEATYLAWLDLREHPEAGRIQEFLLEEAKVAVHNGPTFAPGEQGAAYQGFIRVNFATSRAILTEALERMARALDTRQEGHHHHHH", "soluble on expression in E. coli": "soluble"}, {"sequence": "MRNEEKHALRRELRRARAQMGHQGRLAAGQTINRLLKRYIKRGRKIGVYWPMGKELRLDGFVRAAQKRGAKLYLPYIEPRSRRMWFTPYPESGMERERIRGRAKLNVPQFAGRKIRVHGLSVLLVPLVGIDREGYRLGQAGGYYDATLAAMKYRLQAKTVGVGFACQFVDRLPREPHDLLLDGFVSEAGILCFLEHHHHHH", "soluble on expression in E. coli": "not soluble"}, {"sequence": "MTTSNIKALIPSELRKVWEFILDIENYDAWRSDLSKTEVVSDKQFIEYTKDGYPTTFTVTLVEPYRRWEFDMQNSNMSGHWIGVFTDKGNETEIDFTECVEAKKMLMKPFVKSYLKKQQAQFVADIMKNFSLEHHHHHH", "soluble on expression in E. coli": "soluble"}, {"sequence": "MSLLRIEPDLSHFKAGTYRFTPQMTVREMLKLLESGKEAQFPLRLVEGMRLSDYLKQLREAPYIKHTLSDDKYATVAQALELENPEWIEGWFWPDTWMYTANTTDVALLKRAHKKMVKAVDSAWEGRADGLPYKDKNQLVTMASIIEKETAVASERDQVASVFINRLRIGMRLQTDPTVIYGMGERYNGKLSRADLETPTAYNTYTITGLPPGAIATPGADSLKAAAHPAKTPYLYFVADGKGGHTFNTNLASHNKSVQDYLKVLKEKNAQEGHHHHHH", "soluble on expression in E. coli": "soluble"}, {"sequence": "MAHHHHHHMDCQALAKSLEQMNHLHNVKYLEAKDLTDFNQKSAYYICHQIAEKQLSKEGGHVVIGLSGGKTPIDVYKNIALVKDIKIDTSKLIFFIIDERYKRDDHKFSNYNNIKFLFESLKINEKEQLYRPDTSKNIVECVRDYNEKIKNMVKKYTKVDIAILGMGSDFHIASLFPNIFFNIYMNNYQNSYIYDESSIKVANSNDTSDNDNLDLLKEYVYFTTTNNFDVRKRITVSLDLLGNASSKIFLLNSTDKLDLWKNMLLKSYVDVNYCLYPAVYLIDSMNTTVVTCGYTNYPQMLEDIYVSNSSLS", "soluble on expression in E. coli": "soluble"}, {"sequence": "GPGSMHFPALFPEPLATAHASRLHPFPWSSSYESIFLCPPTSLCSSAASMTQPTLTEDELDDALGLAIRAANTAAFISNSVIDDKTNNIVEAQTRNNPNDLVTQCEKHCKEEVLNILRVGTPSYAILSDDMHSEAVLGDGPTWIVGPIDGTVSFKHGLFDFCISIALALRKEPILGVVCAPRLQEVFTAVNNRGAFSNGQRIHVSLVDSLRQSVVLLHHSGTRSDAAVRSVAAMQAELAKLPVQGLRCNGSAALDMCLVAAGRAELFWKAGVNPWNVAAGVIIVREAGGVVHDVESTDSFDLTCRSVCCGCSLDVTKHGVELSLKHNYRSSVLNTSS", "soluble on expression in E. coli": "not soluble"}, {"sequence": "MKKVEILKTSRPSSAGGAARPSTASPTHGAPKIAIKTRPVADDVAPTAATVIEPSQKAMKESVRFLTDFGEISDAISDLLTSSPNFNVISAIGPQGAGKSTLLSMLAGNNSRQMYREYVFRPVSREANEQSRHQTIQIDIYIVNHQIFLDCQPMYSFSIMEGLPKVRGGRFDDSTAMSDTLRLTAFLLYVSHTVLVVSETHYDKVIIDTLRVAEQIRPYLAIFRPKLAIDRKTNLVFIKTKASSIDLAPTVIREREELLRLSFQDSRWLKVSQEPFKTLIVLEEIRVRREHLFEEGDEPDEAASLNEFDEQIAELREELQKNREDFTVETAAMDEKKWLDMCREVIRDKTLHKTLKEYQRAMTDGVRTHFDNGFHAERDANKFFS", "soluble on expression in E. coli": "not soluble"}, {"sequence": "MELIRFSISIPSKLLEKFDQIIEEIGYENRSEAIRDLIRDFIIRHEWEVGNEEVAGTITIVYNHDEGDVVKALLDLQHEYLDEIISSLHVHMDEHNCLEVIVVKGEAKKIKMIADKLLSLKGVKHGKLVMTSTGKELV", "soluble on expression in E. coli": "soluble"}]}]}
